In patent US20170232076A1 (SHIRE HUMAN GENETIC THERAPIES, published 2017):

How the values were obtained:
[1] = molecular target: T1, cation-independent mannose-6-phosphate receptor (CI-M6PR), as used in the in vitro receptor binding assay …; assay: in vitro CI-M6PR binding assay
[2] = molecular target: T1, cation-independent mannose-6-phosphate …; assay: ELISA, CI-M6PR binding, detection with antibody to human Naglu
[3] = molecular target: cation-independent mannose-6-phosphate receptor (CI-M6PR) on cells overexpressing CI-M6PR; assay: cellular uptake assay on cells overexpressing CI-M6PR, intracellular Naglu activity read-out

B1: recombinant human Naglu (rhNaglu) produced in HT-1080 cells overexpressing GNPT (enzyme)
chain: DEAREAAAVRALVARLLGPGPAADFSVSVERALAAKPGLDTYSLGGGGAARVRVRGSTGVAAAAGLHRYLRDFCGCHVAWSGSQLRLPRPLPAVPGELTEATPNRYRYYQNVCTQSYSFVWWDWARWEREIDWMALNGINLALAWSGQEAIWQRVYLALGLTQAEINEFFTGPAFLAWGRMGNLHTWDGPLPPSWHIKQLYLQHRVLDQMRSFGMTPVLPAFAGHVPEAVTRVFPQVNVTKMGSWGHFNCSYSCSFLLAPEDPIFPIIGSLFLRELIKEFGTDHIYGADTFNEMQPPSSEPSYLAAATTAVYEAMTAVDTEAVWLLQGWLFQHQPQFWGPAQIRAVLGAVPRGRLLVLDLFAESQPVYTRTASFQGQPFIWCMLHNFGGNHGLFGALEAVNGGPEAARLFPNSTMVGTGMAPEGISQNEVVYSLMAELGWRKDPVPDLAAWVTSFAARRYGVSHPDAGAAWRLLLRSVYNCSGEACRGHNRSPLVRRPSLQMNTSIWYNRSDVFEAWRLLLTSAPSLATSPAFRYDLLDLTRQAVQELVSLYYEEARSAYLSKELASLLRAGGVLAYELLPALDEVLASDSRFLLGSWLEQARAAAVSEAEADFYEQNSRYQLTLWGPEGNILDYANKQLAGLVANYYTPRWRLFLEALVDSVAQGIPFQQHQFDKNVFQLEQAFVLSKQRYPSQPRGDTVDLAKKIFLKYYPRWVAGSW
modifications: M6P on N-linked glycans enhanced by co-expression with GNPT
notes: Same polypeptide as rhNaglu; It differs in being co-expressed with GNPT; also called GNPT/rhNaglu; rhNaglu produced using a GNPT overexpressing cell line
Question: How did the Kd [1] turn out when B1 was run?
Answer: ~65 nM

B2: Naglu-IGFII fusion protein (produced in HT-1080 cells) (enzyme)
chain: DEAREAAAVRALVARLLGPGPAADFSVSVERALAAKPGLDTYSLGGGGAARVRVRGSTGVAAAAGLHRYLRDFCGCHVAWSGSQLRLPRPLPAVPGELTEATPNRYRYYQNVCTQSYSFVWWDWARWEREIDWMALNGINLALAWSGQEAIWQRVYLALGLTQAEINEFFTGPAFLAWGRMGNLHTWDGPLPPSWHIKQLYLQHRVLDQMRSFGMTPVLPAFAGHVPEAVTRVFPQVNVTKMGSWGHFNCSYSCSFLLAPEDPIFPIIGSLFLRELIKEFGTDHIYGADTFNEMQPPSSEPSYLAAATTAVYEAMTAVDTEAVWLLQGWLFQHQPQFWGPAQIRAVLGAVPRGRLLVLDLFAESQPVYTRTASFQGQPFIWCMLHNFGGNHGLFGALEAVNGGPEAARLFPNSTMVGTGMAPEGISQNEVVYSLMAELGWRKDPVPDLAAWVTSFAARRYGVSHPDAGAAWRLLLRSVYNCSGEACRGHNRSPLVRRPSLQMNTSIWYNRSDVFEAWRLLLTSAPSLATSPAFRYDLLDLTRQAVQELVSLYYEEARSAYLSKELASLLRAGGVLAYELLPALDEVLASDSRFLLGSWLEQARAAAVSEAEADFYEQNSRYQLTLWGPEGNILDYANKQLAGLVANYYTPRWRLFLEALVDSVAQGIPFQQHQFDKNVFQLEQAFVLSKQRYPSQPRGDTVDLAKKIFLKYYPRWVAGSWGAPGGGGGAAAAAGGGGGGAPGGGGGAAAAAGGGGGGAPGGGGGAAAAAGGGGGGAPLCGGELVDTLQFVCGDRGFYFSRPASRVSRRSRGIVEECCFRSCDLALLETYCATPAKSE
notes: Purified from conditioned medium
Question: Which results are given for B2?
Answer: Kd [2]: ~0.21 nM; Kd [1]: 0.24 nM; fold higher affinity than Naglu-SapDC produced in GNPT overexpressing cells [3]: 3.6 fold

B3: Naglu-LIF fusion protein (produced in HT-1080 cells) (enzyme)
chain: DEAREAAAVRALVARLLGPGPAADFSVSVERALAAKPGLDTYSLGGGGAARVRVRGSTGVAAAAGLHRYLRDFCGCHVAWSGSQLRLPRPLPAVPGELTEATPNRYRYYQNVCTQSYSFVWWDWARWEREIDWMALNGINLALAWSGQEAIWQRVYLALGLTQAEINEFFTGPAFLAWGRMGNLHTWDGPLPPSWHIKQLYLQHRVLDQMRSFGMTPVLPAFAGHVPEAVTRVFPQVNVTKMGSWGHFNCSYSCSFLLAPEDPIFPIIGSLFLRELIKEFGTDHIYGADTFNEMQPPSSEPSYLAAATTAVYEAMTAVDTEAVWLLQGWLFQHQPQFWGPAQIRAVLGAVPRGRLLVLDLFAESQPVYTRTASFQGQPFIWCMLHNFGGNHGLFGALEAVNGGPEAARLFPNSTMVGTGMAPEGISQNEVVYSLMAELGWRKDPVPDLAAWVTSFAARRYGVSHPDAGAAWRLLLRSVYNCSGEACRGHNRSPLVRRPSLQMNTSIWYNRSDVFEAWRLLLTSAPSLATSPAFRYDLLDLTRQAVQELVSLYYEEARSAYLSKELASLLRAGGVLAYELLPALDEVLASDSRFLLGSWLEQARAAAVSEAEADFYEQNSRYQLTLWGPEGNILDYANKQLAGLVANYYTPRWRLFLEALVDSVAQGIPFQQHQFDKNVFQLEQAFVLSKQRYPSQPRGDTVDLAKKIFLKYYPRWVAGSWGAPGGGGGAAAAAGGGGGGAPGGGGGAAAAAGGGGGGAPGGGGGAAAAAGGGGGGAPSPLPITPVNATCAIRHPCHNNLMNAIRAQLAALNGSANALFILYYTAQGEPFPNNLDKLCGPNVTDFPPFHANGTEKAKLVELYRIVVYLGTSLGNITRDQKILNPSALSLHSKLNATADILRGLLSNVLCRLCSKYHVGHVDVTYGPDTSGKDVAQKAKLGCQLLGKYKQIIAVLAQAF
modifications: N-linked glycosylation sites in the LIF part marked (N); by anti-M6P Western blot not M6P-phosphorylated in any detectable manner when overexpressed alone
Question: B3 was tested. Which Kd [2] did it give?
Answer: 32.4 nM
